Measurements reported in article PMC10864366, “Aggresome formation promotes ASK1/JNK signaling activation and stemness maintenance in ovarian cancer” (Nature Communications, 2024).

Molecular target: the molecule itself
Assay: gel-shift assay (SDS-PAGE of heated and unheated protein, Coomassie stain); purified OTUD1 WT and Δ105–164 protein; heated (100 °C) and unheated samples separated by SDS-PAGE

B1: purified OTUD1 protein (WT), pET28a-mEGFP-OTUD1 (natural protein, UniProt Q5VV17 1-481, looked up)
chain: MQLYSSVCTHYPAGAPGPTAAAPAPPAAATPFKVSLQPPGAAGAAPEPETGECQPAAAAEHREAAAVPAAKMPAFSSCFEVVSGAAAPASAAAGPPGASCKPPLPPHYTSTAQITVRALGADRLLLHGPDPVPGAAGSAAAPRGRCLLLAPAPAAPVPPRRGSSAWLLEELLRPDCPEPAGLDATREGPDRNFRLSEHRQALAAAKHRGPAATPGSPDPGPGPWGEEHLAERGPRGWERGGDRCDAPGGDAARRPDPEAEAPPAGSIEAAPSSAAEPVIVSRSDPRDEKLALYLAEVEKQDKYLRQRNKYRFHIIPDGNCLYRAVSKTVYGDQSLHRELREQTVHYIADHLDHFSPLIEGDVGEFIIAAAQDGAWAGYPELLAMGQMLNVNIHLTTGGRLESPTVSTMIHYLGPEDSLRPSIWLSWLSNGHYDAVFDHSYPNPEYDNWCKQTQVQRKRDEELAKSMAISLSKMYIEQNACS
notes: OTUD1, wild type; also called purified native WT OTUD1 protein; source: pET28a-mEGFP-OTUD1 construct, purified
  binding result: binds
